Laboratory results from patent US20080311122A1, “Antagonists of Hmgb1 and/or Rage and Methods of Use Thereof” (Medimmune, LLC, priority 2005, published 2008).

What was measured:
[1] = target: HMG1 purified from bovine (calf) thymus (bovine) (UniProt P10103); assay: cell-based or functional assay
[2] = target: HMGB1 in DNA immune complexes of human lupus plasma (human) (UniProt P09429); assay: cell-based or functional assay
Chain of HMGB1 in DNA immune complexes of human lupus plasma (human) (P09429 whole entry, one chain of several): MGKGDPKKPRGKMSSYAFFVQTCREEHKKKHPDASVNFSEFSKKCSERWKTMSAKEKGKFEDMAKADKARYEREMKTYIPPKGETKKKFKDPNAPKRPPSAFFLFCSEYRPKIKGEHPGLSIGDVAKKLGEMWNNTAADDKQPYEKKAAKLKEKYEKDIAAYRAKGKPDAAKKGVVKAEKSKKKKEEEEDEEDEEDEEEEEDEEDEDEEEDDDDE

Chain of HMG1 purified from bovine (calf) thymus (bovine) (P10103 2-215 limits assumed): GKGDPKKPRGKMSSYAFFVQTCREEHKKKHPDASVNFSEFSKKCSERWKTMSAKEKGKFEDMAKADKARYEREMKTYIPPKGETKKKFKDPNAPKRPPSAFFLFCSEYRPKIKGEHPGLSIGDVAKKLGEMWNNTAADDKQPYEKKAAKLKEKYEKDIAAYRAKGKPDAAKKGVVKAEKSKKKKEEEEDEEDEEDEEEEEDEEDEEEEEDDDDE

IFN-a release from mouse bone marrow cells, HMGB/CpG-A mediated enhanced TLR9 signaling [1]: > 95%
decrease in IFIT1 mRNA in human PBMC stimulated with 20% lupus plasma [2]: 75%
Substance: RAGE-Fc fusion protein (species not stated)
